Reference: patent US20050287144A1

Target: endogenous NIK of mouse embryonic fibroblast cells (mouse) (UniProt Q9WUL6)
Test: cell-based or functional assay

endogenous NIK of mouse embryonic fibroblast cells (mouse), sequence (Q9WUL6 whole entry): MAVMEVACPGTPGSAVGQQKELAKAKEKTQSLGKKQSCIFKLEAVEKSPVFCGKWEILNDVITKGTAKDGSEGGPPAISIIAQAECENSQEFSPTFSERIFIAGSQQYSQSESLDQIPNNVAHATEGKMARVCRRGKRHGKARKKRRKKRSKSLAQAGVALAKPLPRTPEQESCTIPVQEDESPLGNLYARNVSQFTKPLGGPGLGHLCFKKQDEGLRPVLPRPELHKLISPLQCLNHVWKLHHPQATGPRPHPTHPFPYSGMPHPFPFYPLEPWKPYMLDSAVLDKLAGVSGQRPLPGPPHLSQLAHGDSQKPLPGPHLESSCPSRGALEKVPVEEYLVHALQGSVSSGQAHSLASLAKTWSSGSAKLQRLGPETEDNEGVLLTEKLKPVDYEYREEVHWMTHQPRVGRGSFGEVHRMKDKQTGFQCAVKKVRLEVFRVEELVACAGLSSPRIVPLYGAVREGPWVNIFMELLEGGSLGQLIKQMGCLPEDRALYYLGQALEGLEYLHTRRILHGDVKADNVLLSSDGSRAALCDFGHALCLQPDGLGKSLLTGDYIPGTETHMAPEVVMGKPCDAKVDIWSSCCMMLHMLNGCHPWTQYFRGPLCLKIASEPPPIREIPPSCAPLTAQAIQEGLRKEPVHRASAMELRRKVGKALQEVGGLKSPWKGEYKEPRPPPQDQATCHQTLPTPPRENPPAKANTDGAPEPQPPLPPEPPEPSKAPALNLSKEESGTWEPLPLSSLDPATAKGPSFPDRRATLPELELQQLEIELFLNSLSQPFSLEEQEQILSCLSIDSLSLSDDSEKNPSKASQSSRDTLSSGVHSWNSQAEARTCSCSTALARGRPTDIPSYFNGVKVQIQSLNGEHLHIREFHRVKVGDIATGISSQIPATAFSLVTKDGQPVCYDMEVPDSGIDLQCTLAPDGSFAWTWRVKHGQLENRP

NF-κB activation by LTβ, luciferase reporter, mouse embryonic fibroblast cells [fold] | decrease in NF-κB activation by LTβ, luciferase reporter, mouse embryonic fibroblast cells [%] | Substance
2.5 | – | GST fusion protein with the intracellular domain of cγc (from UniProt P31785 284-369)
– | 50 | GST-41MDD fusion protein (from UniProt P31785 329-369)
